T1: EsCas13d, nuclease-dead (Eubacterium siraeum, UniProt B0MS50, R295A;H300A;R849A;H854A)
T1 sequence: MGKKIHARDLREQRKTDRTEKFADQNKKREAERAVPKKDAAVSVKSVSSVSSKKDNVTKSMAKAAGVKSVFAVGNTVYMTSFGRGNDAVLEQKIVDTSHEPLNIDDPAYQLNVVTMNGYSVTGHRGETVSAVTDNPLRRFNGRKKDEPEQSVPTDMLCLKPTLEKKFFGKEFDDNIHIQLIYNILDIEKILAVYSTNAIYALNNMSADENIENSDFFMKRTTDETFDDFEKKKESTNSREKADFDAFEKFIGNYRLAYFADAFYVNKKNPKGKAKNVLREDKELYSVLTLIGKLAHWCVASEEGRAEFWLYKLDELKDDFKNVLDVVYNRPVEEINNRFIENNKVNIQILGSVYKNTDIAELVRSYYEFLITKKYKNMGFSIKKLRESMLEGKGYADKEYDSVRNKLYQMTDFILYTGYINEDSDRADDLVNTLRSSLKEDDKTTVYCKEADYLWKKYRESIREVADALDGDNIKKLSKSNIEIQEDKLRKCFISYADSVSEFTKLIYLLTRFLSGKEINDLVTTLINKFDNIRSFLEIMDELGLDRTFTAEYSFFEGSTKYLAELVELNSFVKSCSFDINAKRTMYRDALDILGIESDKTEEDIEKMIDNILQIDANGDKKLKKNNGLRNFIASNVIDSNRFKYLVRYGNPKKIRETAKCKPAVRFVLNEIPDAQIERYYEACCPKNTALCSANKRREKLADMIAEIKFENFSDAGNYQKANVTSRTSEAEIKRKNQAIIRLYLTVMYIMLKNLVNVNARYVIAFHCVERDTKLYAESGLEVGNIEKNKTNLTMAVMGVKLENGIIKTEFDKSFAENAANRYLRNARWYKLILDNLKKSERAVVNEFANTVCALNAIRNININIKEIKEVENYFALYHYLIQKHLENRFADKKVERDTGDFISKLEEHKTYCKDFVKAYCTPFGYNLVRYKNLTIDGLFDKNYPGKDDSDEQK


These binders were tested against T1, EsCas13d, nuclease-dead (assay: crRNA (strand 1, pre-loaded); Mg2+; 40 mM Tris-HCl pH 7.5, 150 mM NaCl, 6 mM MgCl2, 1 mM DTT, 0.1% Tween-20, 0.2 mg/ml BSA; 25 C; 10 min per concentration, then washed). Conditions: tags: His6-TwinStrep-SUMO cleaved; N-terminal SNAP kept (SNAP-Surface 488); label: 3' end held by stalled T7 RNA polymerase.

Binder | Kd
target 1 MT 5'PFS AAC 3'PFS UAC (mixed) RNA 1: CACCCGUGCAAAAAUGCAGGGGUCUAAAACUGAGCGGAUAACCUCUCUAUGG RNA 2: GGGAAUGGAUCCACAUCUACGAAUUCAACCCAUAGAGAGGUUAUCCGCUCAUACAGAUCGGAAGAGCACACGU | 31 ± 13 nM
target 1 MT 5'PFS UGU 3'PFS AUA (mixed) RNA 1: CACCCGUGCAAAAAUGCAGGGGUCUAAAACUGAGCGGAUAACCUCUCUAUGG RNA 2: GGGAAUGGAUCCACAUCUACGAAUUCUGUCCAUAGAGAGGUUAUCCGCUCAAUAAGAUCGGAAGAGCACACGU | 62.5 ± 23 nM
target 1 MT 5'PFS AUG 3'PFS CUC (mixed) RNA 1: CACCCGUGCAAAAAUGCAGGGGUCUAAAACUGAGCGGAUAACCUCUCUAUGG RNA 2: GGGAAUGGAUCCACAUCUACGAAUUCAUGCCAUAGAGAGGUUAUCCGCUCACUCAGAUCGGAAGAGCACACGU | 21.1 ± 5.75 nM
target 1 MT 5'PFS UCA 3'PFS AAA (mixed) RNA 1: CACCCGUGCAAAAAUGCAGGGGUCUAAAACUGAGCGGAUAACCUCUCUAUGG RNA 2: GGGAAUGGAUCCACAUCUACGAAUUCUCACCAUAGAGAGGUUAUCCGCUCAAAAAGAUCGGAAGAGCACACGU | 21 ± 9 nM
target 1 MT 5'PFS GUA 3'PFS UGA (mixed) RNA 1: CACCCGUGCAAAAAUGCAGGGGUCUAAAACUGAGCGGAUAACCUCUCUAUGG RNA 2: GGGAAUGGAUCCACAUCUACGAAUUCGUACCAUAGAGAGGUUAUCCGCUCAUGAAGAUCGGAAGAGCACACGU | 11.2 ± 0.65 nM
target 1 MT 5'PFS UGC 3'PFS CUA (mixed) RNA 1: CACCCGUGCAAAAAUGCAGGGGUCUAAAACUGAGCGGAUAACCUCUCUAUGG RNA 2: GGGAAUGGAUCCACAUCUACGAAUUCUGCCCAUAGAGAGGUUAUCCGCUCACUAAGAUCGGAAGAGCACACGU | 18 ± 7 nM
target 1 MT 5'PFS UCA 3'PFS AAU (mixed) RNA 1: CACCCGUGCAAAAAUGCAGGGGUCUAAAACUGAGCGGAUAACCUCUCUAUGG RNA 2: GGGAAUGGAUCCACAUCUACGAAUUCUCACCAUAGAGAGGUUAUCCGCUCAAAUAGAUCGGAAGAGCACACGU | 19.2 ± 6.35 nM
target 1 MT 5'PFS AGU 3'PFS AAG (mixed) RNA 1: CACCCGUGCAAAAAUGCAGGGGUCUAAAACUGAGCGGAUAACCUCUCUAUGG RNA 2: GGGAAUGGAUCCACAUCUACGAAUUCAGUCCAUAGAGAGGUUAUCCGCUCAAAGAGAUCGGAAGAGCACACGU | 55 ± 24 nM
target 1 MT 5'PFS CUU 3'PFS CUA (mixed) RNA 1: CACCCGUGCAAAAAUGCAGGGGUCUAAAACUGAGCGGAUAACCUCUCUAUGG RNA 2: GGGAAUGGAUCCACAUCUACGAAUUCCUUCCAUAGAGAGGUUAUCCGCUCACUAAGAUCGGAAGAGCACACGU | 29.5 ± 12.5 nM
target 1 MT 5'PFS AGU 3'PFS AAC (mixed) RNA 1: CACCCGUGCAAAAAUGCAGGGGUCUAAAACUGAGCGGAUAACCUCUCUAUGG RNA 2: GGGAAUGGAUCCACAUCUACGAAUUCAGUCCAUAGAGAGGUUAUCCGCUCAAACAGAUCGGAAGAGCACACGU | 49 ± 16 nM
target 1 MT 5'PFS UCA 3'PFS AAG (mixed) RNA 1: CACCCGUGCAAAAAUGCAGGGGUCUAAAACUGAGCGGAUAACCUCUCUAUGG RNA 2: GGGAAUGGAUCCACAUCUACGAAUUCUCACCAUAGAGAGGUUAUCCGCUCAAAGAGAUCGGAAGAGCACACGU | ~70 nM
target 1 MT 5'PFS UAA 3'PFS UGC (mixed) RNA 1: CACCCGUGCAAAAAUGCAGGGGUCUAAAACUGAGCGGAUAACCUCUCUAUGG RNA 2: GGGAAUGGAUCCACAUCUACGAAUUCUAACCAUAGAGAGGUUAUCCGCUCAUGCAGAUCGGAAGAGCACACGU | 31 ± 8 nM
target 1 MT 5'PFS CUU 3'PFS CUG (mixed) RNA 1: CACCCGUGCAAAAAUGCAGGGGUCUAAAACUGAGCGGAUAACCUCUCUAUGG RNA 2: GGGAAUGGAUCCACAUCUACGAAUUCCUUCCAUAGAGAGGUUAUCCGCUCACUGAGAUCGGAAGAGCACACGU | 41 ± 19 nM
target 1 MT 5'PFS AGU 3'PFS AAA (mixed) RNA 1: CACCCGUGCAAAAAUGCAGGGGUCUAAAACUGAGCGGAUAACCUCUCUAUGG RNA 2: GGGAAUGGAUCCACAUCUACGAAUUCAGUCCAUAGAGAGGUUAUCCGCUCAAAAAGAUCGGAAGAGCACACGU | ~100 nM
target 1 MT 5'PFS AAG 3'PFS CGG (mixed) RNA 1: CACCCGUGCAAAAAUGCAGGGGUCUAAAACUGAGCGGAUAACCUCUCUAUGG RNA 2: GGGAAUGGAUCCACAUCUACGAAUUCAAGCCAUAGAGAGGUUAUCCGCUCACGGAGAUCGGAAGAGCACACGU | 41 ± 12.5 nM
target 1 A9U,U11A (mixed) RNA 1: CACCCGUGCAAAAAUGCAGGGGUCUAAAACUGAGCGGAUAACCUCUCUAUGG RNA 2: GGGAAUGGAUCCACAUCUACGAAUUCGUACCAUAGAGAGGAUUUCCGCUCACCGAGAUCGGAAGAGCACACGU | 23.4 ± 1.1 nM
target 1 MT 5'PFS GUA 3'PFS UGG (mixed) RNA 1: CACCCGUGCAAAAAUGCAGGGGUCUAAAACUGAGCGGAUAACCUCUCUAUGG RNA 2: GGGAAUGGAUCCACAUCUACGAAUUCGUACCAUAGAGAGGUUAUCCGCUCAUGGAGAUCGGAAGAGCACACGU | 58.5 ± 7.5 nM
target 1 U10A,U11G (mixed) RNA 1: CACCCGUGCAAAAAUGCAGGGGUCUAAAACUGAGCGGAUAACCUCUCUAUGG RNA 2: GGGAAUGGAUCCACAUCUACGAAUUCGUACCAUAGAGAGGGAAUCCGCUCACCGAGAUCGGAAGAGCACACGU | 11.6 ± 0.5 nM
target 1 insC 3' of 20,insG 3' of 18 (mixed) RNA 1: CACCCGUGCAAAAAUGCAGGGGUCUAAAACUGAGCGGAUAACCUCUCUAUGG RNA 2: GGGAAUGGAUCCACAUCUACGAAUUCGUACCACUAGGAGAGGUUAUCCGCUCACCGAGAUCGGAAGAGCACACGU | 12.9 ± 0.8 nM
target 1 MT 5'PFS CUA 3'PFS UCU (mixed) RNA 1: CACCCGUGCAAAAAUGCAGGGGUCUAAAACUGAGCGGAUAACCUCUCUAUGG RNA 2: GGGAAUGGAUCCACAUCUACGAAUUCCUACCAUAGAGAGGUUAUCCGCUCAUCUAGAUCGGAAGAGCACACGU | 4.9 ± 0.7 nM
target 1 MT 5'PFS CUU 3'PFS CUC (mixed) RNA 1: CACCCGUGCAAAAAUGCAGGGGUCUAAAACUGAGCGGAUAACCUCUCUAUGG RNA 2: GGGAAUGGAUCCACAUCUACGAAUUCCUUCCAUAGAGAGGUUAUCCGCUCACUCAGAUCGGAAGAGCACACGU | ~15 nM
target 1 MT 5'PFS UGC 3'PFS CUG (mixed) RNA 1: CACCCGUGCAAAAAUGCAGGGGUCUAAAACUGAGCGGAUAACCUCUCUAUGG RNA 2: GGGAAUGGAUCCACAUCUACGAAUUCUGCCCAUAGAGAGGUUAUCCGCUCACUGAGAUCGGAAGAGCACACGU | 13.2 ± 2.8 nM
target 1 MT 5'PFS ACA 3'PFS UUA (mixed) RNA 1: CACCCGUGCAAAAAUGCAGGGGUCUAAAACUGAGCGGAUAACCUCUCUAUGG RNA 2: GGGAAUGGAUCCACAUCUACGAAUUCACACCAUAGAGAGGUUAUCCGCUCAUUAAGAUCGGAAGAGCACACGU | 8.85 ± 2.9 nM
target 1 MT 5'PFS ACA 3'PFS UUC (mixed) RNA 1: CACCCGUGCAAAAAUGCAGGGGUCUAAAACUGAGCGGAUAACCUCUCUAUGG RNA 2: GGGAAUGGAUCCACAUCUACGAAUUCACACCAUAGAGAGGUUAUCCGCUCAUUCAGAUCGGAAGAGCACACGU | 12.7 ± 4.2 nM
target 1 MT 5'PFS GUA 3'PFS UGC (mixed) RNA 1: CACCCGUGCAAAAAUGCAGGGGUCUAAAACUGAGCGGAUAACCUCUCUAUGG RNA 2: GGGAAUGGAUCCACAUCUACGAAUUCGUACCAUAGAGAGGUUAUCCGCUCAUGCAGAUCGGAAGAGCACACGU | 5.68 ± 0.46 nM
target 1 MT 5'PFS AAC 3'PFS UAU (mixed) RNA 1: CACCCGUGCAAAAAUGCAGGGGUCUAAAACUGAGCGGAUAACCUCUCUAUGG RNA 2: GGGAAUGGAUCCACAUCUACGAAUUCAACCCAUAGAGAGGUUAUCCGCUCAUAUAGAUCGGAAGAGCACACGU | 15 ± 5.5 nM
target 1 MT 5'PFS AAG 3'PFS CGA (mixed) RNA 1: CACCCGUGCAAAAAUGCAGGGGUCUAAAACUGAGCGGAUAACCUCUCUAUGG RNA 2: GGGAAUGGAUCCACAUCUACGAAUUCAAGCCAUAGAGAGGUUAUCCGCUCACGAAGAUCGGAAGAGCACACGU | 38 ± 16 nM
target 1 MT 5'PFS UCA 3'PFS AAC (mixed) RNA 1: CACCCGUGCAAAAAUGCAGGGGUCUAAAACUGAGCGGAUAACCUCUCUAUGG RNA 2: GGGAAUGGAUCCACAUCUACGAAUUCUCACCAUAGAGAGGUUAUCCGCUCAAACAGAUCGGAAGAGCACACGU | 18.6 ± 5.7 nM
